Measured values published in article PMC10784507, “Disordered-to-ordered transitions in assembly factors allow the complex II catalytic subunit to switch binding partners” (Nature Communications, 2024).
Substitutions are numbered along the chain they refer to. Blank lines part the entries; values can stand above or below the binder they belong to.

What was measured:
His6-apo-SDHA = biological target: T1, His6-apo-SDHA (human, UniProt P31040 43-664); experiment: pull-down; Ni-NTA pull-down, pairwise; His6-apo-SDHA (2.6 µM) with SDHAF2 (6.4 µM) or FLAG-SDHAF4 (8 µM), no FAD; 40 mM HEPES pH 7.5, 0.5 mM DTT, 30 min 25 °C; SDS-PAGE, Coomassie; details: both partners purified
T1 construct: the same molecule with 75 µM FAD added is the form with non-covalent FAD; also called His-SDHA; not shown: His6, N-terminal, kept

[1] = biological target: T2, holo-SDHA with covalently attached FAD (human, UniProt P31040 43-664, covalently attached FAD (residue not stated)); experiment: pull-down; preformed holo-SDHA-SDHAF2 (2 µM, His6 on SDHA) incubated with SDHAF4 or its variants, with or without 5 mM fumarate, 30 min 25 °C, then held on Ni-NTA agarose; SDS-PAGE with Coomassie, western blot for the truncated variants; details: both partners purified
T2 construct: also called SDHA with covalent FAD; His6-SDHA; source: E. coli BL21(DE3), purified; covalent FAD formed in vitro (apo-SDHA with SDHAF2, FAD and fumarate) or by co-expression with SDHAF2; not shown: His6, N-terminal, kept

[2] = biological target: T3, holo-SDHA-SDHAF2 complex (preformed from purified proteins) (human, UniProt P31040 43-664; Q9NX18 37-166, covalently attached FAD (residue not stated)); experiment: as above; details: both partners purified
T3 construct: human SDHAF2, mature, residues 37-166; also called holo-SDHA-AF2; SDHA-AF2 complex; source: E. coli BL21(DE3) proteins, purified; not shown: His6, N-terminal, kept; His6, N-terminal, cleaved

[3] = biological target: T2, holo-SDHA with covalently attached FAD; experiment: crystal structure; SDHA-AF2-AF4: holo-SDHA-SDHAF2 with His6-SDHAF4, 5 h at 4 °C, SEC; crystals in 0.2 M ammonium citrate tribasic pH 8.0, 20% PEG 3,350, 1 mM DTT, 25 °C; details: both partners purified
[4] = biological target: T4, Human SDHA-AF2 complex (co-expressed, purified) (human, UniProt P31040 43-664; Q9NX18 37-166, covalently attached FAD (residue not stated)); experiment: as above; details: both partners purified
T4 construct: human SDHAF2, mature, residues 37-166; also called holo-SDHA-SDHAF2 complex; holo-SDHA-AF2; not shown: His6, N-terminal, kept

[5] = biological target: the molecule itself; experiment: native gel or EMSA; purified His6-SDHAF4^30-108, dilution series from 5 mg/ml, on 10% native and 10% SDS gels

T3 sequence (P31040 43-664, one chain of several): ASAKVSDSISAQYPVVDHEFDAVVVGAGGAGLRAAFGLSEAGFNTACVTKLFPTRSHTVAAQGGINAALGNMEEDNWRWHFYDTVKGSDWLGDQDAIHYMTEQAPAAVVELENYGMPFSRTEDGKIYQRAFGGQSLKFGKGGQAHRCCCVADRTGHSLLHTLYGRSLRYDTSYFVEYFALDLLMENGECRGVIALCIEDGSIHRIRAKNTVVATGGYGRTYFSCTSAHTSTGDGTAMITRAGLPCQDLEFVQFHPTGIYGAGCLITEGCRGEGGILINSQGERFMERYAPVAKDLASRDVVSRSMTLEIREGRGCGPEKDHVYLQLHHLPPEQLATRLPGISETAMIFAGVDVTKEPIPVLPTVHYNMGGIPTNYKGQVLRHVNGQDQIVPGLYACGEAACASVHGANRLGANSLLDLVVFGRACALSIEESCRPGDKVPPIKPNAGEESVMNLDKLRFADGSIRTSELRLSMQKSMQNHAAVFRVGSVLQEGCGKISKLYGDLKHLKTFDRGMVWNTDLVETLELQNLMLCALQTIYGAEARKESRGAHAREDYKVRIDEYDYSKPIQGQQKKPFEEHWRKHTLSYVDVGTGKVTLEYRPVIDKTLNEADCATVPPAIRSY
T2 sequence (P31040 43-664): as the sequence (P31040 43-664, one chain of several) above
T4 sequence (P31040 43-664, one chain of several): as above
T1 sequence (P31040 43-664): as the sequence (P31040 43-664, one chain of several) above

B1: SDHAF2 (residues 37-166, His6 tag removed with TEV protease) (natural protein, human, UniProt Q9NX18 37-166, looked up)
chain: GDSPTDSQKDMIEIPLPPWQERTDESIETKRARLLYESRKRGMLENCILLSLFAKEHLQHMTEKQLNLYDRLINEPSNDWDIYYWATEAKPAPEIFENEVMALLRDFAKNKNKEQRLRAPDLEYLFEKPR
notes: human SDHAF2, mature, residues 37-166; source: E. coli BL21(DE3), purified; His6 tag removed with TEV protease; not shown: His6, N-terminal, cleaved
binding result (His6-apo-SDHA): binds | binding result [1]: binds

B3: FLAG-SDHAF4 (mature, residues 20-108) (natural protein, human, UniProt Q5VUM1 20-108, looked up)
chain: AARSPLLCHSLRKTSSSQGGKSELVKQSLKKPKLPEGRFDAPEDSHLEKEPLEKFPDDVNPVTKEKGGPRGPEPTRYGDWERKGRCIDF
notes: human SDHAF4, mature protein, residues 20-108, codon-optimised synthetic gene in pST50Trc3-FLAG; also called full-length SDHAF4; wild-type SDHAF4; source: E. coli BL21(DE3), purified (DEAE-Sepharose, filtration)
percent of SDHAF2 displaced from the SDHA-AF2 complex [2]: ~80%

B4: SDHAF4^D107A (natural protein, human, UniProt Q5VUM1 30-108, looked up)
chain: LRKTSSSQGGKSELVKQSLKKPKLPEGRFDAPEDSHLEKEPLEKFPDDVNPVTKEKGGPRGPEPTRYGDWERKGRCIAF
notes: human SDHAF4, residues 30-108, made by modification of the pQT-SDHAF4 parent vector; The pQT vector adds a TEV-cleavable His tag; source: E. coli BL21(DE3), purified
binding result [2]: binds

B9: SDHAF4^77-108 (domain or fragment)
chain: not shown
notes: human SDHAF4, residues 77-108; also called truncated FLAG-SDHAF4 variant
percent of SDHAF2 displaced from the SDHA-AF2 complex [2]: ~50%

B10: SDHAF4^56-108 (domain or fragment)
chain: not shown
notes: human SDHAF4, residues 56-108; also called truncated FLAG-SDHAF4 variant
percent of SDHAF2 displaced from the SDHA-AF2 complex [2]: ~50%

B11: SDHAF4^67-108 (domain or fragment)
chain: not shown
notes: human SDHAF4, residues 67-108; also called truncated FLAG-SDHAF4 variant
percent of SDHAF2 displaced from the SDHA-AF2 complex [2]: ~50%

The next lines start with results.

binding result [2]: binds
B2: SDHAF4^ΔF108 (natural protein, human, UniProt Q5VUM1 30-108, looked up)
chain: LRKTSSSQGGKSELVKQSLKKPKLPEGRFDAPEDSHLEKEPLEKFPDDVNPVTKEKGGPRGPEPTRYGDWERKGRCID
notes: human SDHAF4, residues 30-108 without the C-terminal F108, made by modification of the pQT-SDHAF4 parent vector; The pQT vector adds a TEV-cleavable His tag; source: E. coli BL21(DE3), purified

binding result [3]: binds | binding result [4]: binds
B5: His6-SDHAF4^30-108 (natural protein, human, UniProt Q5VUM1 30-108, looked up)
chain: B4 chain with A78D
notes: human SDHAF4, residues 30-108, in the pQT vector (pQT-SDHAF4); also called His-SDHAF4; purified SDHAF4; source: E. coli BL21(DE3), purified (Ni-NTA, SEC); not shown: His6, N-terminal, kept
binding result [5]: binds

binding result [2]: binds
B6: SDHAF4^D107T (natural protein)
chain: not shown
notes: as for B4

binding result [2]: binds
B7: SDHAF4^D107N (natural protein, human, UniProt Q5VUM1 30-108, looked up)
chain: B4 chain with A78N
notes: as for B4

binding result [2]: binds
B8: SDHAF4^F108A (natural protein, human, UniProt Q5VUM1 30-108, looked up)
chain: B4 chain with A78D, F79A
notes: as for B4
